Results from US20050265970A1 (UNIVERSITY OF CHICAGO, published 2005).

Key:
[1] = biological target: T1, HA-GCKR (full-length human, in 293 cells) (human, UniProt Q9Y4K4 1-846); assay: combined immunoprecipitation and Western blot, 293 cells
T1 construct: not shown: HA tag

[2] = biological target: T2, HA-GCK (full-length human, in 293 cells) (human, UniProt Q12851 1-820); assay: as above
T2 construct: not shown: HA tag
T2 sequence (looked up): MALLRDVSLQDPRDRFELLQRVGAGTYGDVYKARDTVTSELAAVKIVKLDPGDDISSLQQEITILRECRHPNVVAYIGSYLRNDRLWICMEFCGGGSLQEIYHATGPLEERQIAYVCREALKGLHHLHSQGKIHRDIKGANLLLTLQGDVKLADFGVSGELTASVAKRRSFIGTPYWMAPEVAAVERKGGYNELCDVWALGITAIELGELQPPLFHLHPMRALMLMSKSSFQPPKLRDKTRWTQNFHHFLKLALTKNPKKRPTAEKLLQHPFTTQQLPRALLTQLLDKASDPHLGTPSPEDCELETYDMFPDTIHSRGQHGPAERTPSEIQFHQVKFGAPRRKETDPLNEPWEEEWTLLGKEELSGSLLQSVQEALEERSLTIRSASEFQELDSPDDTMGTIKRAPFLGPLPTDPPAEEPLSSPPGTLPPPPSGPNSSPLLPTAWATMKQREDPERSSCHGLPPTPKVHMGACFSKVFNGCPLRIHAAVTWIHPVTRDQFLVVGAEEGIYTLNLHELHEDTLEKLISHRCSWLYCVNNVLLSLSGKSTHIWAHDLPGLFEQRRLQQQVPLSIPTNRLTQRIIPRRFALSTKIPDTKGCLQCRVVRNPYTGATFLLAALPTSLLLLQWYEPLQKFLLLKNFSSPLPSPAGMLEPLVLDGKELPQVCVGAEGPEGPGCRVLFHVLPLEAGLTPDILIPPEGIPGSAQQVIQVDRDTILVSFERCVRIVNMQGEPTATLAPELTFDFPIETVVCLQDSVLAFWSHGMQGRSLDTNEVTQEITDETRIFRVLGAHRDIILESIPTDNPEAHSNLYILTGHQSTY

[3] = biological target: T3, HA-MEKK4 (full-length murine, in 293 cells) (murine, UniProt O08648 1-1597, limits assumed); assay: co-IP from 293 cells
T3 construct: also called MEKK4/MTK1; not shown: HA tag
T3 sequence (O08648 whole entry): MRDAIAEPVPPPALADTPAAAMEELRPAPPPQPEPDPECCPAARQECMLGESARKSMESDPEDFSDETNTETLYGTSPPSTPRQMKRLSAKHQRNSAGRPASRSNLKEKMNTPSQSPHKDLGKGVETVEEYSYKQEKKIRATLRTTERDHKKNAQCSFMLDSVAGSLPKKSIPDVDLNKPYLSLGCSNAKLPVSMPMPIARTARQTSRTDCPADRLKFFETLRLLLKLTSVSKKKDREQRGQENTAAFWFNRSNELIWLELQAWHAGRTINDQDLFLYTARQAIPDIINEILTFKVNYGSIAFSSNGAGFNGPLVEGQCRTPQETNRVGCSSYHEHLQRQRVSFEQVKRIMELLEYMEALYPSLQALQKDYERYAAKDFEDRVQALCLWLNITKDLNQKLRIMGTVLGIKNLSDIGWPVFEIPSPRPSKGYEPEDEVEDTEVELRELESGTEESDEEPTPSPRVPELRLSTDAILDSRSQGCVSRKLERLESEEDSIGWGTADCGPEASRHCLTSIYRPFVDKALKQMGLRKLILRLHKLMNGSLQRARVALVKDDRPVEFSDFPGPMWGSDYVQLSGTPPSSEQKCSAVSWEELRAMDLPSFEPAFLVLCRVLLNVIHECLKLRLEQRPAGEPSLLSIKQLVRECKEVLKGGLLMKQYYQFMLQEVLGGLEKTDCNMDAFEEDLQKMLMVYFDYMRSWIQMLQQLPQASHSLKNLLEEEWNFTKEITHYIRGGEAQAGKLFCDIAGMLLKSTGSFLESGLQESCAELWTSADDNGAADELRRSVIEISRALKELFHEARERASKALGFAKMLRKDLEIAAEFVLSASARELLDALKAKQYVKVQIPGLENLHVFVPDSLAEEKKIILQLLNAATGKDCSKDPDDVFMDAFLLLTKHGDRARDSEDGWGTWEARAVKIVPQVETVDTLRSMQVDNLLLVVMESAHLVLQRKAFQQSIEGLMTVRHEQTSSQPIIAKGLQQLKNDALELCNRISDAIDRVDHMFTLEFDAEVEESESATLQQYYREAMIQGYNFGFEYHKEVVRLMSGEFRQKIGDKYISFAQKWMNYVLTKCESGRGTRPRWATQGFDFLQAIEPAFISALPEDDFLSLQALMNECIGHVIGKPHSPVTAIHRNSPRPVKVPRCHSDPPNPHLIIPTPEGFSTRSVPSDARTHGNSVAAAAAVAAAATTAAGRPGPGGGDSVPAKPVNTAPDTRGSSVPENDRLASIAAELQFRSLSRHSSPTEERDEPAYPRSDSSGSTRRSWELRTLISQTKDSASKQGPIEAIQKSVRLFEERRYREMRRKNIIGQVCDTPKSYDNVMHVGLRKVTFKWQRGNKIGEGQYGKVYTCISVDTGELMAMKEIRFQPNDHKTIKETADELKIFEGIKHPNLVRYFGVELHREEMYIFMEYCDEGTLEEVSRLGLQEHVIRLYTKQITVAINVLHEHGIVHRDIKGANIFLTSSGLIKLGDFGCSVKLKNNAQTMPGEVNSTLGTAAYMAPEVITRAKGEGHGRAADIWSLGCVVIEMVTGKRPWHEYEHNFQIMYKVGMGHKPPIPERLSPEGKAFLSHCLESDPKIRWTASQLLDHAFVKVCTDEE

[4] = biological target: T4, HA-ASK1 (full-length human, in 293 cells) (human, UniProt Q99683 1-1374); assay: co-IP from 293 cells, anti-FLAG beads, anti-HA Western blot
T4 construct: not shown: HA tag
T4 sequence (looked up): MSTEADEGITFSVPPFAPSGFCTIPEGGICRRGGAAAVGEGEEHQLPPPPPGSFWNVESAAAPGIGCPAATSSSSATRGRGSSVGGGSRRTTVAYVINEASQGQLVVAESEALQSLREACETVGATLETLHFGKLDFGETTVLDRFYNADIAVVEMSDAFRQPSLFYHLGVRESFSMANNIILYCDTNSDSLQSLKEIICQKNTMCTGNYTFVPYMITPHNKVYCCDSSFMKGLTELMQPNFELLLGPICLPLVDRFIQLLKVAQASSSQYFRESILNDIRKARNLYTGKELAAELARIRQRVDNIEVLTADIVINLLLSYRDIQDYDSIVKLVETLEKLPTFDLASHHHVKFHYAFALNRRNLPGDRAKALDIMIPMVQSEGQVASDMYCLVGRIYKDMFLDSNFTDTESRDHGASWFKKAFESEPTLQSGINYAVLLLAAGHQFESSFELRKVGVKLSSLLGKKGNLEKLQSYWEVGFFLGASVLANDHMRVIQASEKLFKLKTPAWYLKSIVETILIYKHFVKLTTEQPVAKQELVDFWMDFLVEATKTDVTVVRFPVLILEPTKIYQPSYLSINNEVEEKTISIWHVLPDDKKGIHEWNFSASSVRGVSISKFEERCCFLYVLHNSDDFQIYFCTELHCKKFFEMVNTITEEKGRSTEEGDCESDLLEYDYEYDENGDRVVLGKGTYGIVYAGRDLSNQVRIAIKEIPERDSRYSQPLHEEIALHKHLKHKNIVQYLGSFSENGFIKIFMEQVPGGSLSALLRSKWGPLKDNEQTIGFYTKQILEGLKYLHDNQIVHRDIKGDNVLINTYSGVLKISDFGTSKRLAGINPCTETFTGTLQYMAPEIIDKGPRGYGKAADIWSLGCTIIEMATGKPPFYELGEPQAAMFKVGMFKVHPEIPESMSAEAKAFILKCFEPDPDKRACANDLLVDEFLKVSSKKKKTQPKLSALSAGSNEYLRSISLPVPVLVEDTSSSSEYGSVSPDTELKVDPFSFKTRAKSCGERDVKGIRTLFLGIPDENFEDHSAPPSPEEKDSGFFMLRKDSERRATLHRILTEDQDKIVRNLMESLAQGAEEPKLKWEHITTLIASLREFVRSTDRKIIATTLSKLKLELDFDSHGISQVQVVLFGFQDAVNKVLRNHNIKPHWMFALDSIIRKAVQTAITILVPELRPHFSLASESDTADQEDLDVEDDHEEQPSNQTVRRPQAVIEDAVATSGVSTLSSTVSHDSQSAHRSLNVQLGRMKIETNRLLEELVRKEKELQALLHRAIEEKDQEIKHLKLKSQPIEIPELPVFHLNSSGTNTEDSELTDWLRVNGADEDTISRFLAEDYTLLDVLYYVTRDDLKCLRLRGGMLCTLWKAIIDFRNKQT

[5] = biological target: T5, HA-MEKK3 (full-length human, in 293 cells) (human, UniProt Q99759 1-626, limits assumed); assay: as above
T5 construct: not shown: HA tag
T5 sequence (looked up): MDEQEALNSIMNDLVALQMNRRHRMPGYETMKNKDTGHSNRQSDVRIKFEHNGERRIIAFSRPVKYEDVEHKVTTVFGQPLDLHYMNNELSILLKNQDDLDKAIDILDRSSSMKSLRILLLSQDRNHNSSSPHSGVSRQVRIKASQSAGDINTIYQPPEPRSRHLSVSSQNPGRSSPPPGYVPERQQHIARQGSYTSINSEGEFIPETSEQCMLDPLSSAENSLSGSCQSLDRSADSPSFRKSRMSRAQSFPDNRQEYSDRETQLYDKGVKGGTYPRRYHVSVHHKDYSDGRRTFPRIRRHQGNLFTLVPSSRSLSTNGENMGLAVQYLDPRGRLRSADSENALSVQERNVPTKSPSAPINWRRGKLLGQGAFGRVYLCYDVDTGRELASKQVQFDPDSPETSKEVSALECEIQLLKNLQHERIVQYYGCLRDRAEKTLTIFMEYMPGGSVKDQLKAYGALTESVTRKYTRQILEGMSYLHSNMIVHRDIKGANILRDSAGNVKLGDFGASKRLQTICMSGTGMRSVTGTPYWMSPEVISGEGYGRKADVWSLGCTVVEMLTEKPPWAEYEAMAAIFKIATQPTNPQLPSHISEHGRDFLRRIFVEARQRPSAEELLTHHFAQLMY

[6] = biological target: T6, HA-MEKK1 (full-length human, in 293 cells) (human, UniProt Q13233 1-1512, limits assumed); assay: as above
T6 construct: not shown: HA tag
T6 sequence (Q13233 whole entry): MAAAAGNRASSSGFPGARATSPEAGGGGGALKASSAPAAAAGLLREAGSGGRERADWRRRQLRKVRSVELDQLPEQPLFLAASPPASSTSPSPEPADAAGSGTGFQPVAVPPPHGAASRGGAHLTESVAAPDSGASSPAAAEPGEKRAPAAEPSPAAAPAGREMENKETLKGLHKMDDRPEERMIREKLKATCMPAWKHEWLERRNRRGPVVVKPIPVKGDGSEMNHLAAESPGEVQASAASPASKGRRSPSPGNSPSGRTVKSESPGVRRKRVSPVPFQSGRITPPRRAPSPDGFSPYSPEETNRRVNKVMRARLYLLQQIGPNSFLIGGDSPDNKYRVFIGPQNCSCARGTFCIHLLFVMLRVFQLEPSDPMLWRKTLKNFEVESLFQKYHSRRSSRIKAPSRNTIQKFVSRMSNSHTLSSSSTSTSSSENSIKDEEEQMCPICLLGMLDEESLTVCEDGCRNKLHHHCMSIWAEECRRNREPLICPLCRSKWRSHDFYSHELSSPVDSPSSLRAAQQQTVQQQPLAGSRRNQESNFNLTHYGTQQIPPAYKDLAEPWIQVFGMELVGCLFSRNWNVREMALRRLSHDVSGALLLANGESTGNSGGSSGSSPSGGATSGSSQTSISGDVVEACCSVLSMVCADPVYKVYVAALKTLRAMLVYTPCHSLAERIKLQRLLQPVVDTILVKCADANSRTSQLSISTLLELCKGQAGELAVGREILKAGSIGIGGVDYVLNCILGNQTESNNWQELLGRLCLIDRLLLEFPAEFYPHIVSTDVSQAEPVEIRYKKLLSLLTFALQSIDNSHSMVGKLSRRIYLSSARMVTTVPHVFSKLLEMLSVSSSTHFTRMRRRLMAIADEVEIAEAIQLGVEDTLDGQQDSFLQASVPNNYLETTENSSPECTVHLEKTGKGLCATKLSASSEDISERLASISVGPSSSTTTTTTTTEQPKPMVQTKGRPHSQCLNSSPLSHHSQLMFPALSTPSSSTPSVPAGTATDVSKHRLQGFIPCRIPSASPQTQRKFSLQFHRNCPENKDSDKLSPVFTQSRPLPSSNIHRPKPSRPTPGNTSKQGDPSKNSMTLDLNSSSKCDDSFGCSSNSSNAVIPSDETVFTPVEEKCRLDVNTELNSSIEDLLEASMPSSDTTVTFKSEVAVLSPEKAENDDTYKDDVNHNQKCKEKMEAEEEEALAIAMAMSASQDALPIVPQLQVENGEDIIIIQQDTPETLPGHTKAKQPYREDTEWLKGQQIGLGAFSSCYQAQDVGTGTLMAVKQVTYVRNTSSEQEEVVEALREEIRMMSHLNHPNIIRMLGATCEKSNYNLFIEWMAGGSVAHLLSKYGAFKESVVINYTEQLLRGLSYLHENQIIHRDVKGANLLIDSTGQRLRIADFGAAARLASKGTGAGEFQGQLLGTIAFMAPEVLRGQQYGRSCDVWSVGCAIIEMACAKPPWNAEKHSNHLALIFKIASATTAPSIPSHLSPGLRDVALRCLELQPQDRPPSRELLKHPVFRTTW

T1 sequence (Q9Y4K4 whole entry): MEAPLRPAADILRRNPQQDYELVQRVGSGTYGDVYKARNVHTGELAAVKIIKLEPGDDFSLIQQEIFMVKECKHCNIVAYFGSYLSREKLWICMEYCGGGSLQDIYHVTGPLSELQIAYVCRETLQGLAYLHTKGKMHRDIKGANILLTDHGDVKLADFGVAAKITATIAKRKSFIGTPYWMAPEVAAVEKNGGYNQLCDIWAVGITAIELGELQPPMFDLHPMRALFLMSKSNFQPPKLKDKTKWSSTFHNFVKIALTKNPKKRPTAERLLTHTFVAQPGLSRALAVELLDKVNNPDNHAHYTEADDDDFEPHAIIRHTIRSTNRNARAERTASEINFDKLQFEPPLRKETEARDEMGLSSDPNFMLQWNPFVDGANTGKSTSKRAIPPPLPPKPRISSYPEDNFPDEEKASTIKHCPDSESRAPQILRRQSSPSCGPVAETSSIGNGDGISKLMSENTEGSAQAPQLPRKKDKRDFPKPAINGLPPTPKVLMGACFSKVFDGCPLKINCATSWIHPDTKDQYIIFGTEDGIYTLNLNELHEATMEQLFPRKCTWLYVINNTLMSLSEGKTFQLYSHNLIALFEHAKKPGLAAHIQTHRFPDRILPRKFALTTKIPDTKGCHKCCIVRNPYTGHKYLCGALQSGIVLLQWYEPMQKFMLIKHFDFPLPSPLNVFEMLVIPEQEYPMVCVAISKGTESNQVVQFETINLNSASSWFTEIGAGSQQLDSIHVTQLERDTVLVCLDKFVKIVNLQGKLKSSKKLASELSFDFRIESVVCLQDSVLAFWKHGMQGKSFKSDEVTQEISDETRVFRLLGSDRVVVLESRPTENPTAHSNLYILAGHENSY

B1: FLAG-Gadd45β (full-length murine Gadd45β, pcDNA-FLAG-Gadd45β, expressed in 293 cells) (other, UniProt P22339 1-160, looked up)
chain: MTLEELVASDNAVQKMQAVTAAVEQLLVAAQRQDRLTVGVYEAAKLMNVDPDSVVLCLLAIDEEEEDDIALQIHFTLIQSFCCDNDIDIVRVSGMQRLAQLLGEPAETLGTTEARDLHCLLVTNCHTDSWKSQGLVEVASYCEESRGNNQWVPYISLEER
notes: range 1-160; Co-expressed with HA-tagged kinases in 293 cells for co-immunoprecipitation; not shown: FLAG tag
binding result [1]: no binding
binding result [2]: no binding
binding result [3]: binds
binding result [4]: binds
binding result [5]: no binding
binding result [6]: no binding
